For this assay, the target named is His6:ΔIBB-IMPORTIN-α2 (Arabidopsis thaliana (Mouse-ear cress), UniProt F4JL11). As to the kind of experiment: analytical SEC.
His6:ΔIBB-IMPORTIN-α2, sequence (F4JL11 75-535, stated change not applied): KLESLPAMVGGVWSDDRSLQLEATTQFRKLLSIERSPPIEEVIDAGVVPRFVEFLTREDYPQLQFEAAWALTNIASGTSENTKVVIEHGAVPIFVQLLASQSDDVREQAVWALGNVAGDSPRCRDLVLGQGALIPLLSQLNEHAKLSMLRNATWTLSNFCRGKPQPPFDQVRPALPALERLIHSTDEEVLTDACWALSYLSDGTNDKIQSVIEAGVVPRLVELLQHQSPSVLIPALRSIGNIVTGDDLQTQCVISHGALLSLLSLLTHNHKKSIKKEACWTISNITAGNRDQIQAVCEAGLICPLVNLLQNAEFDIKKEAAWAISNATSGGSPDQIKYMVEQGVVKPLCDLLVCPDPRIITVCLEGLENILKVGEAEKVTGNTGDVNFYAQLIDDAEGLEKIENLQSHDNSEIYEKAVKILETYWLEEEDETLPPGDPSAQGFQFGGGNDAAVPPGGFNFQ

B1: His6:SUMO:SAP (protein)
chain: MANKLKVDELRLKLAERGLSTTGVKAVLVERLEEAIAEDTKKEESKSKRKRNSSNDTYESNKLIAIGEFRGMIVKELREEAIKRGLDTTGTKKDLLERLCNDANN
Regarding B1, the binding result is “no binding”.

(Values after publication PMC6230994 (2018).)
